According to PMC6925217, “PtomtAPX, a mitochondrial ascorbate peroxidase, plays an important role in maintaining the redox balance of Populus tomentosa Carr” (Scientific Reports, 2019):

Substrate: O=C1O[C@H]([C@@H](O)CO)C(O)=C1O
Assay: steady-state Michaelis-Menten kinetics
Assay type: biochemical, Populus tomentosa
Settings: fixed H2O2 concentration
Text: steady-state Michaelis-Menten kinetics on PtosAPX

B1: PtosAPX (Populus tomentosa) (protein)
chain: ASDAAQLKSAREDIKELLKSKFCHPILVRLGWHDAGTYNKNIEEWAKRGGANGSLRFEIELKHAANAGLVDALKLIQPIKDKYSGVTYADLFQMASATAIEEAGGPKIPMKYGRVDVSVPDECPEEGRLPDAGPPKPADHLRGVFYRMGLDDKEIVALSGAHTLGRSRPERSGWGKPETKYTKNGPGAPGGQSWTAEWLKFDNSYFKDIKERKDEDLLVLPTDAALFEDPSFKVYAEKYAEDKEAFFKDYAEAHAKLSNLGAKFDPPEGIMLDGVAGEKFVAAKYSSGKD
notes: ORF minus N-terminal targeting peptide, pET30a, E. coli, purified; 39 kDa on SDS-PAGE; full ORF 1,086 bp; homologue of P. trichocarpa JGI 209946
- Km: 4.30 ± 1.81 mM
- Vmax: 850 µM/min
- kcat: 15000 s⁻¹
- kcat/Km: 3.48e+06 M⁻¹ s⁻¹
